Substrate in series [1]: NCCc1c[nH]c2ccccc12
In words: Phosphoramidase fluorescence assay. The format is biochemical, human. The conditions noted are these: other: Table 5; pH 7.2; 25.0 °C. As for the experimental part: The fluorescence of tryptophan (ex, 280 nm, em 360 nm) can be quenched when covalently attached to a nucleoside monophosphate, and nucleoside phosphoramidates of D- and L-tryptophan and tryptamine are excellent fluorescent substrates for hHINT1. Typically, after measurement of initial substrate fluorescence, hHINT1 was added to the reaction solution (HEPES buffer, pH 7.2, 25° C.) and the change in fluorescence over 2 min was determined by converting the slope into μM of substrate hydrolyzed per μg of enzyme per min with a standard curve. […] Based on the generation of chimeric polypeptides between the hHINTI and the hinT of E. coli, the preference for D enantiomers by the human HINT1 polypeptide is likely conferred by the C-terminus amino acids (e.g., the C-terminus 5, 6, 5 7, 8, 9, 10, or 11 amino acids) of the hHINT1 enzyme. […] In addition, both D-tryptophan phosphoramidates of cytosine and uridine were substrates. Initial rates were determined 10 during the first 10-20% of the reaction for variable substrate concentrations. The Michaelis-Menten constants, kcat and Km, for selected nucleoside phosphosphoramidates have been determined. (Table 4). As observed in the initial screening assay, for phosphoramidates containing L-tryptophan, hHINT1 has a 7-fold greater preference for AMP phosphoramidates of L-tryptophan than GMP.

Substrate in series [2]: NCCc1c[nH]c2ccccc12
In words: Phosphoramidase fluorescence assay. Type of series: biochemical, E. coli. As to conditions: other: Table 5; pH 7.2; 25.0 °C.

One may read the Km as the concentration of substrate that gives half-maximal velocity. Broadly, the kcat is the number of substrate molecules converted per active site and unit of time at saturation. In general, kcat/Km refers to the second-order rate constant that governs catalysis at low substrate concentration.

B1: hHINT1 (Homo sapiens) (protein)
chain: MADEIAKAQVARPGGDTIFGKIIRKEIPAKIIFEDDRCLAFHDISPQAPTHFLVIPKKHISQISVAEDDDESLLGHLMIVGKKCAADLGLNKGYRMVVNEGSDGGQSVYHVHLHVLGGRQMHWPPG
In the case of B1, in series [1], the Michaelis constant (Km) was determined as 1.74 ± 0.22 µM, the kcat came out at 0.97 ± 0.11 s⁻¹ and the kcat/Km came to 558000 M⁻¹ s⁻¹.

B2: E. coli hinT (Escherichia coli K-12) (protein)
chain: MAEETIFSKIIRREIPSDIVYQDDLVTAFRDISPQAPTHILIIPNILIPTVNDVSAEHEQALGRMITVAAKIAEQEGIAEDGYRLIMNTNRHGGQEVYHIHMHLLGGRPLGPMLAHKGL
For B2, in series [2], the Km was 30.1 ± 2.39 µM, the kcat was 0.45 ± 0.04 s⁻¹ and the kcat/Km was 15000 M⁻¹ s⁻¹.
